Test results: publication PMC6321462

Molecular target: actin from rabbit skeletal muscle (G-actin polymerized to F-actin) (rabbit) (UniProt P68135)

MBP-DRR1 dC (recombinant murine DRR1 lacking the C-terminal domain, MBP fusion) (domain or fragment), sequence (Q78TU8 whole entry, the tested form may be a part): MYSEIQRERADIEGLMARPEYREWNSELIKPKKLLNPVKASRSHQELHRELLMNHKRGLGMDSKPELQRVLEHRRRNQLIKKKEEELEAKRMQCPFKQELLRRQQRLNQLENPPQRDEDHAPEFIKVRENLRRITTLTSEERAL

MBP-DRR1 dC (recombinant murine DRR1 lacking the C-terminal domain, MBP fusion) (domain or fragment)
barbed end filament elongation rate in the presence of profilin (1.5 µM), TIRF microscopy, R = 0.5: 36 % of control
